Results as given in PMC6944315.
Where “and” joins values, the source holds several entries; their conditions need not be identical. Equal values may be shown once.

Columns and labels:
[1] = target: Caldivirga maquilingensis type III sulfide:quinone oxidoreductase, wild type, His-tagged (Caldivirga maquilingensis IC-167); test: SEC
[2] = target: CmSQR truncated 1 (T1), lacking the complete last C-terminal helix (Caldivirga maquilingensis IC-167); test: SEC
[3] = target: CmSQR truncated 1 (T1), lacking the complete last C-terminal helix (Caldivirga maquilingensis IC-167); test: native gel or EMSA
[4] = target: CmSQR truncated 2 (T2), lacking the last two C-terminal helices, His-tagged (Caldivirga maquilingensis IC-167); test: cross-linking
[5] = target: CmSQR truncated 2 (T2), lacking the last two C-terminal helices, His-tagged (Caldivirga maquilingensis IC-167); test: SEC
[6] = target: CmSQR truncated 2 (T2), lacking the last two C-terminal helices, His-tagged (Caldivirga maquilingensis IC-167); test: native gel or EMSA

Substance: Caldivirga maquilingensis type III sulfide:quinone oxidoreductase, wild type, His-tagged (enzyme)
- stoichiometry N [1]: 2

Substance: CmSQR truncated 1 (T1), lacking the complete last C-terminal helix (domain or fragment)
- stoichiometry N [2]: 2
- stoichiometry N [3]: 2

Substance: CmSQR truncated 2 (T2), lacking the last two C-terminal helices, His-tagged (domain or fragment)
- stoichiometry N [4]: 2 and 3
- stoichiometry N [5]: 2
- stoichiometry N [6]: 2 and 3
